According to patent US20120328625A1 (AstraZeneca / MedImmune, published 2012):

Experiments:
[1] = molecular target: T1, Shh-N in conditioned medium (human, UniProt Q15465 24-197, N-terminal palmitoyl modification; lacks the C-terminal cholesterol moiety); assay: cell-based or functional assay
[2] = molecular target: T2, full length human Shh expressed on the cell surface (human, UniProt Q15465 24-462); assay: cell-based or functional assay
[3] = molecular target: T1, Shh-N in conditioned medium; assay: cell-based or functional assay; remark: listed apart in the source
biotinylated human Shh = molecular target: T3, biotinylated human Shh (human, UniProt Q15465 24-197, limits assumed, biotinylated); assay: ELISA, hybridoma supernatant on neutravidin-captured biotin-Shh
T3 construct: also called biotin-Shh; immobilized biotinylated Shh
Experimental: After blocking with 1% milk in PBS, 40 μl of 500 ng/ml biotinylated Shh in 1×PBS, 1% milk (wt/vol) was added to each well and incubated for 1 hr at RT. Hybridoma supernatants (10 μl/well) were added to 40 μl of 1% milk, 0.05% Tween-20 in PBS per well and incubated 1 hr at RT. Following washing and incubation with secondary antibody (100 ng/ml goat-anti-human IgG Fc HRP), wells were developed with TMB substrate and subsequently quenched with 1 N HCl.

[4] = molecular target: T4, Recombinant Human Sonic Hedgehog C24II amino terminal peptide (R&D Systems cat#1845-SH) (human, UniProt Q15465 24-197); assay: ELISA, apparent KD, purified antibody on immobilized Shh C24II
T4 construct: domain: amino terminal peptide; bought; also called Shh-C24II; C24II peptide
Experimental: (§1) The binding of purified antibodies to recombinant human Shh was determined using an ELISA-based method. The N-terminal signaling domain of Shh, Shh-N, was presented in two forms: as a purified protein isolated from bacteria lacking lipid modifications and as a constituent of conditioned medium in a form that contains the N-terminal palmitoyl modification but lacks the C-terminal cholesterol moiety.
(§2) The plates were sealed and placed on a shaker overnight at 5° C. The next day, the plates were washed 4 times with PBS with 0.05% Tween 20 (PBS-T). […] The plates were washed four times with PBS-T. Titrations of purified antibody (half log serial dilutions over at least six logs with a starting concentration of 30 μg/mL) were made in 100 μl PBS-T and added into wells and incubated with shaking overnight at 4° C. Antibody controls included human IgG2 and IgG4 (Sigma-Aldrich, Cat, #I5404 and #I4639, respectively). […] Following washing with PBS-T, the chemiluminescent Peroxidase substrate (Sigma cat# CPS-2-60) was added at room temperature and incubated for ten minutes with the plate covered by foil. Each well was read for 100 msec in the Spectromax 5e to determine RLU.

[5] = molecular target: T1, Shh-N in conditioned medium; assay: cell-based or functional assay; remark: listed apart in the source
[6] = molecular target: T2, full length human Shh expressed on the …; assay: cell-based or functional assay; remark: listed apart in the source
[7] = molecular target: T2, full length human Shh expressed on the …; assay: FMAT, hybridoma supernatant on 293T cells transiently expressing human Shh
Experimental: Cells were maintained at 1×10⁶ cells/ml overnight at 37° C., 5% CO₂. […] Supernatants were added to each well (10 μl/well) and incubated 1.5 hrs at RT. […] Plates were read on the FMAT 8100 HTS system from Applied Biosystems. Total signal (FL1×count) is defined as the number of positive cells in a well (count) multiplied by the average fluorescence intensity of the positive cells (FL1).

[8] = molecular target: T1, Shh-N in conditioned medium; assay: ELISA, apparent KD, purified antibody on immobilized Shh-CM
Experimental: as §1, §2

[9] = molecular target: T1, Shh-N in conditioned medium; assay: cell-based or functional assay; remark: listed apart in the source
[10] = molecular target: T2, full length human Shh expressed on the …; assay: flow cytometry, exhaust hybridoma supernatant 1:10, 293T cells transiently expressing human Shh
Experimental: Finally, binding of antibody in exhaust hybridoma supernatants to native Shh was assessed using flow cytometry. […] Transfected or parental cells were seeded into the plates with V-bottom wells (50,000 cells/well). Exhaust supernatants (50 μl of a 1:10 dilution) were added to each well and incubated at 4° C. for 1 hr. […] It was added to a concentration of 2 μg/ml in a volume of 50 μl. Cells were washed and 50 μl of a 2 μg/ml solution of secondary antibody (Cy5-labeled goat-anti-human IgG or Cy5-labeled goat-anti-rabbit IgG) were added to each well. 7AAD was added to a concentration of 5 μg/ml and the mixture was incubated for 30 min at RT. The mean fluorescence for each sample was then determined using flow cytometry.

[11] = molecular target: T2, full length human Shh expressed on the …; assay: flow cytometry, recombinant hIgG2 on CAOV3 cells stably over-expressing full length Shh; 95% CI ±32.4 pM
[12] = molecular target: T4, Recombinant Human Sonic Hedgehog C24II …; assay: SPR (Biacore T100), recombinant IgG2 mAb amine-coupled to CM5, Shh as analyte, 1:1 model
Experimental: (§3) The binding affinity of four purified recombinant antibodies expressed in a human IgG2 constant domain background was measured by high resolution Biacore. All experiments were performed using a Biacore T100 instrument at 23° C. […] All mAbs were covalently coupled to a CM5 biosensor chip using routine amine coupling chemistry. […] For experiments with Shh-containing conditioned media (CM), a 1.5 mL aliquot was centrifuged for 10 minutes at 13,200 rpm. […] Shh samples were randomly injected in triplicate with several buffer inject cycles interspersed for double referencing. All sensorgram data were processed using Scrubber and fit to a 1:1 interaction model (including a term kₘ for mass transport) using CLAMP.

[13] = molecular target: T1, Shh-N in conditioned medium; assay: as above
Experimental: as §3

[14] = molecular target: T2, full length human Shh expressed on the …; assay: flow cytometry, recombinant hIgG2 on CAOV3 cells stably over-expressing full length Shh; 95% CI ±460 pM
[15] = molecular target: T2, full length human Shh expressed on the …; assay: flow cytometry, hybridoma-derived hIgG4 on HEK 293 cells stably expressing full length Shh; 95% CI ±141 pM
Experimental: (§4) The binding affinity of the purified antibodies for full length Shh ectopically expressed on the surface of a pool of stable HEK 293 cells was determined using flow cytometry. […] Antibody was mixed with cells at approximately 74,000 cells/well in a final volume of 300 μl in a polypropylene microtiter plate. The plate was incubated with shaking for 5 hours at 4° C. […] The plates were shaken for 20 minutes at 4° C. The mean fluorescence of 10,000 events was recorded for each sample using FACS Canto II HTS flow cytometry instrumentation. A plot of the mean fluorescence as a function of antibody concentration was fit nonlinearly with Scientist 3.0 software to estimate KD.

[16] = molecular target: T5, Recombinant Human Desert Hedgehog C23II, amino terminal peptide (R&D Systems cat#4777-HH) (human, UniProt O43323 23-198); assay: ELISA, immobilized human Dhh, antibody 30 µg/ml to 1 pg/ml
T5 construct: domain: amino terminal peptide; bought; also called Human Dhh
Experimental: The plates were washed four times with PBS-T. Titrations of purified antibody (half log serial dilutions over at least six logs with a starting concentration of 30 μg/mL) were made in 100 μl PBS-T and added into wells and incubated with shaking overnight at 4° C. Antibody controls included human IgG2 and IgG4 (Sigma-Aldrich, Cat, #I5404 and #I4639, respectively). […] Following washing with PBS-T, the chemiluminescent Peroxidase substrate (Sigma cat# CPS-2-60) was added at room temperature and incubated for ten minutes with the plate covered by foil. Each well was read for 100 msec in the Spectromax 5e to determine RLU.
After washing with PBS-T and blocking with 1% BSA, antibody titrations spanning concentrations of 30 μg/ml to 1 pg/ml prepared by half log serial dilution in PBS-T were added to wells and incubated with shaking overnight at 4° C.

[17] = molecular target: T2, full length human Shh expressed on the …; assay: flow cytometry, recombinant hIgG2 on CAOV3 cells stably over-expressing full length Shh; 95% CI ±30.4 pM
[18] = molecular target: T6, Recombinant Human/Mouse Indian Hedgehog C28II, amino terminal peptide (R&D Systems cat#1705-HH/CF) (human/mouse (100% sequence identity in …, UniProt Q14623 28-202)); assay: ELISA, apparent KD, purified antibody on immobilized human/mouse Ihh
T6 construct: domain: amino terminal peptide; bought; also called Human/mouse Ihh; Ihh-N C28II
Experimental: as §2

[19] = molecular target: T2, full length human Shh expressed on the …; assay: flow cytometry, hybridoma-derived hIgG4 on HEK 293 cells stably expressing full length Shh; 95% CI ±40 pM
Experimental: as §4

[20] = molecular target: T2, full length human Shh expressed on the …; assay: flow cytometry, recombinant hIgG2 on CAOV3 cells stably over-expressing full length Shh; 95% CI ±19.4 pM
[21] = molecular target: T4, Recombinant Human Sonic Hedgehog C24II …; assay: SPR (Biacore T100), recombinant IgG2 mAb amine-coupled to CM5, Shh as analyte, 1:1 model; KD only an estimate
Experimental: as §3

[22] = molecular target: T1, Shh-N in conditioned medium; assay: as above
Experimental: as §3

Binder | % Inhibition of Gli1 reporter, Conditioned Media N = 1, 20 µg/ml [1] | % Inhibition of Gli1 reporter, Conditioned Media N = 2, 20 µg/ml [1] | % Inhibition of Gli1 reporter, Co-Culture N = 1, 20 µg/ml [2] | % Inhibition of Gli1 reporter, Co-Culture N = 2, 20 µg/ml [2] | Kd [4] | % Inh of Gli1 reporter, CM N = 1 [5] | % Inh of Gli1 reporter, CM N = 3 [5] | % Inh of Gli1 reporter, Co-Culture N = 1 [6] | % Inh of Gli1 reporter, Co-Culture N = 2 [6] | FL1 X COUNT [7] | Kd [8] | IC50, inhibition of osteoblast differentiation (alkaline phosphatase) of C3H10T1/2 cells [9] | X Geo Mean (Transients) [10] | Kd [12] | Kd [13] | further results
1G1 (antibody, V domains shown, fully human XenoMouse hybridoma antibody; also called MAb 1G1) VH: EVQLVESGGGLVKPGGSLRLSCAASGFTFSSYSMNWVRQAPGKGLEWVSSFSSSSSYIYYADSVKGRFTISRDNAKNSLYLQMNSLRAEDTAVYYCARDRGDYVDYYYGMDVWGQGTTVTVSS VL: SYELTQPPSVSVSPGQTASITCSGDKLDYKYICWYQQKPGQSPVLVIYQDIKRPSGIPERFSGSNSGNTATLTISGTQAMDEADYYCQAWDSNTPLVFGGGTKLTVL | 50% | 61% | 44% | 55% | 0.061 nM | 33% | 47% | 42% | 39% | 585000 | 0.03 nM | 5.7 nM | 188 | – | – | % Inhibition of Gli1 reporter, Co-Culture N = 3, 20 µg/ml [2]: 19%; IC50, inhibition of endogenous mouse Gli1 mRNA (qRT-PCR) in C3H10T1/2 cells [3]: 7.7 nM; IC50, inhibition of endogenous mouse Ptc1 mRNA (qRT-PCR) in C3H10T1/2 cells [3]: 8.7 nM; OD450 (biotinylated human Shh): 4.3 OD450
1G1 recombinant IgG2 (antibody, V domains shown) VH: EVQLVESGGGLVKPGGSLRLSCAASGFTFSSYSMNWVRQAPGKGLEWVSSFSSSSSYIYYADSVKGRFTISRDNAKNSLYLQMNSLRAEDTAVYYCARDRGDYVDYYYGMDVWGQGTTVTVSS VL: SYELTQPPSVSVSPGQTASITCSGDKLDYKYICWYQQKPGQSPVLVIYQDIKRPSGIPERFSGSNSGNTATLTISGTQAMDEADYYCQAWDSNTPLVFGGGTKLTVL | – | – | – | – | – | – | – | – | – | – | – | – | – | 0.377 nM | 0.317 nM | Kd [11]: 0.0465 nM
1H8 recombinant IgG2 (antibody, V domains shown, also called 1H8 hIgG2) VH: QVQLQESGPGLVKPSETLSLTCTVSGGSISSYYWTWIRQPPGKGLEWIGYIYYSGSTNYNPSLKSRVTISVDTSKNQFSLKLSSVTAADTAVYYCARDRLLYGMDVWGQGTTVTVSS VL: not shown | – | – | – | – | – | – | – | – | – | – | – | – | – | 4.3 nM | 4.31 nM | Kd [14]: 1.52 nM; koff [12]: 0.00209 s⁻¹; kon [12]: 486000 M⁻¹ s⁻¹; koff [13]: 0.00289 s⁻¹; kon [13]: 671000 M⁻¹ s⁻¹
3H8 (antibody, V domains shown, fully human XenoMouse hybridoma antibody; also called MAb 3H8) VH: QVQLVESGGGVVQPGRSLRLSCAASGFTFSTYGMHWVRQAPGKGLEWVAVIWYDGSNKYYADSVKGRFTISRDNSKNTLNLQMNSLRAEDTAVYYCARDLYYYGSGSPFDYWGQGTLVTVSS VL: EIVMTQSPATLSVSPGERATLSCRASQSVSSNLAWYQQKPGQAPRLLIFGVSIRATGIPARFSGSGSGTEFTLTISSLQSEDFAVYYCQQYNNWPRPGFGGGTKVEIK | 37% | 44% | 73% | 87% | 0.069 nM | 21% | -24% | 35% | 32% | 497000 | 0.331 nM | 3.4 nM | 148 | – | – | Kd [15]: 0.25 nM; OD450 (biotinylated human Shh): 3.81 OD450; binding result [16]: no binding
3H8 recombinant IgG2 (antibody, V domains shown) VH: QVQLVESGGGVVQPGRSLRLSCAASGFTFSTYGMHWVRQAPGKGLEWVAVIWYDGSNKYYADSVKGRFTISRDNSKNTLNLQMNSLRAEDTAVYYCARDLYYYGSGSPFDYWGQGTLVTVSS VL: EIVMTQSPATLSVSPGERATLSCRASQSVSSNLAWYQQKPGQAPRLLIFGVSIRATGIPARFSGSGSGTEFTLTISSLQSEDFAVYYCQQYNNWPRPGFGGGTKVEIK | – | – | – | – | – | – | – | – | – | – | – | – | – | 0.0267 nM | 0.0056 nM | Kd [17]: 0.0682 nM
6D7 (antibody, V domains shown, fully human XenoMouse hybridoma antibody; also called MAb 6D7) VH: QVQLQESGPGLVKPSQTLSLTCTVSGGSINSGGFYWSWIRQHPGKNLEWIGSIYYSGNTYYNPSLKSRVTISVDTSKNQFSLKLTSVTAADTAVYYCARGNDSGDYDWYFDLWGRGTLVTVSS VL: SYELTQPPSVSVSPGQTASITCSGEKLGYKYVCWYQQKPGQSPVLVIFHDNKRPSGIPERFSGSNSGNTATLTISGAQAMDEADYYCQAGDSSAVFGGGTKLTVL | 89% | 111% | 80% | 68% | 0.047 nM | -8% | -1% | 46% | 22% | 661000 | 0.06 nM | 5.3 nM | 313 | – | – | Kd [18]: 0.052 nM; IC50, inhibition of endogenous mouse Gli1 mRNA (qRT-PCR) in C3H10T1/2 cells [3]: 11.7 nM; IC50, inhibition of endogenous mouse Ptc1 mRNA (qRT-PCR) in C3H10T1/2 cells [3]: 8.2 nM; Kd [19]: 0.107 nM; binding result [16]: no binding
6D7 recombinant IgG2 (antibody, V domains shown) VH: QVQLQESGPGLVKPSQTLSLTCTVSGGSINSGGFYWSWIRQHPGKNLEWIGSIYYSGNTYYNPSLKSRVTISVDTSKNQFSLKLTSVTAADTAVYYCARGNDSGDYDWYFDLWGRGTLVTVSS VL: SYELTQPPSVSVSPGQTASITCSGEKLGYKYVCWYQQKPGQSPVLVIFHDNKRPSGIPERFSGSNSGNTATLTISGAQAMDEADYYCQAGDSSAVFGGGTKLTVL | – | – | – | – | – | – | – | – | – | – | – | – | – | – | – | Kd [20]: 0.0371 nM; Kd [21]: 0.0135 nM; Kd [22]: 0.0034 nM
